Experimental data from IntAct's records for PubMed 15210731.

B1: Myosin-1 (Saccharomyces cerevisiae), P08964 (parent)
chain: MTGGQSCSSNMIVWIPDEKEVFVKGELMSTDINKNKFTGQEEQIGIVHPLDSTEVSNLVQVRISDVFPVNPSTFDKVENMSELTHLNEPSVLYNLEKRYDCDLIYTYSGLFLVAINPYHNLNLYSEDHINLYHNKHNRLSKSRLDENSHEKLPPHIFAIAEEAYENLLSEGKDQSILVTGESGAGKTENTKKILQYLASITSGSPSNIAPVSGSSIVESFEMKILQSNPILESFGNAQTVRNNNSSRFGKFIKIEFNEHGMINGAHIEWYLLEKSRIVHQNSKERNYHIFYQLLSGLDDSELKNLRLKSRNVKDYKILSNSNQDIIPGINDVENFKELLSALNIIGFSKDQIRWIFQVVAIILLIGNIEFVSDRAEQASFKNDVSAICSNLGVDEKDFQTAILRPRSKAGKEWVSQSKNSQQAKFILNALSRNLYERLFGYIVDMINKNLDHGSATLNYIGLLDIAGFEIFENNSFEQLCINYTNEKLQQFFNNHMFVLEQSEYLKENIQWDYIDYGKDLQLTIDLIESKGPPTGVLPLLDEEAVLPKSTDESFYSKLISTWDQNSSKFKRSRLKNGFILKHYAGDVEYTVEGWLSKNKDPLNDNLLSLLSSSQNDIISKLFQPEGEKSSSAGVEANISNQEVKKSARTSTFKTTSSRHREQQITLLNQLASTHPHFVRCIIPNNVKKVKTFNRRLILDQLRCNGVLEGIRLAREGYPNRIAFQEFFQRYRILYPENSTTTTFSSKLKASTKQNCEFLLTSLQLDTKVYKIGNTKLFFKAGVLADLEKQKDVKLNNIMIKLTATIRGYTVRKEITYHLQKLKKTRVIGNTFRLYNRLVKEDPWFNLFIRIKPLLTSSNDMTRTKKFNEQINKLKNDLQEMESKKKFLEEKNQKTVNELENTQDLLNQEKENLRKNESLLNRVKTSSETLQKQFDDLVSEKDEISREKLEVAQNLEEAHQKIQGLQETIREREATLEKLHSKNNELIKQISDLNCDISKEQSSQSLIKESKLKLENEIKRLKDVINSKEEEIKSFNDKLSSSEEDLDIKLVTLEKNCNIAMSRLQSLVTENSDLRSKNENFKKEKAALNNQLKNKESELLKMKEKIDNHKKELATFSKQRDDAVSEHGKITAELKETRIQLTEYKSNYQKIKEEYSNFQRETKEQEQKKRNSLVESLNDSKIKELEARLSQEISLNQYLNKRISGNSVETNISSTRRSTSYSDDPLDKEDIIKKYYDLQLAFTEITRNLENEIEEKKNLISRLRFTETRLASSSFEDQKIKAQMKKLKKLIQDMDPSIPLDSILNEPLDNCPDKESDINKLMLEVDYLKRQLDIETRAHYDAENAISALHSKFRKIQGESSLSSSDIYKLKFEASEERVKSLEDKLKTMPLRDRTNLPVGDIIKNRDSISKYEEEIRYYKLENYKLQEILNESNGKLSQLTLDLRQSKSKEALLSEQLDRLQKDLESTERQKELLSSTIKQQKQQFENCMDDLQGNELRLREHIHALKQAEEDVKNMASIIEKLKTQNKQKEKLIWEREMERNDSDMQLQETLLELKRVQDVKKILSDDLAHLKERLSAVEDRSQYTDEINRLKEELNCSLKAETNLKKEFATLKYKLETSTNDSEAKISDLLKQLDHYTKVVEMLNNEKDAISLAEKELYQKYEALNTECESLKGKIVSLTKIKQELESDLNQKTDALQISNAALSSSTQKNKEITEKIKYLEETLQLQMEQNSRNGELVKTLQASCNGYKDKFDDEKQKNIDLYEENQTLQKLNTDLQLQLKNLHERLSDTTEKNAWLSKIHELENMVSLETDLKYEEMKKNKSLERAVEELQTKNSQQTDVIELANKNRSEFEEATLKYEAQISDLEKYISQQELEMKKSIRDNSSYRDKVQEMAQEIEFWKSRYESTMIGSKNIDSNNAQSKIFS
partner: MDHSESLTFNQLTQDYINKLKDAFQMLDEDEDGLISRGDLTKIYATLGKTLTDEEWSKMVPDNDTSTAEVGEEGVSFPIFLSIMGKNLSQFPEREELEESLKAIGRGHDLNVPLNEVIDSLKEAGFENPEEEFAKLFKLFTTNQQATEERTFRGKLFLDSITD
B2: Myosin light chain 1 (Saccharomyces cerevisiae), P53141 (parent)
chain: MSATRANKDIFTLFDKKGQGAIAKDSLGDYLRAIGYNPTNQLVQDIINADSSLRDASSLTLDQITGLIEVNEKELDATTKAKTEDFVKAFQVFDKESTGKVSVGDLRYMLTGLGEKLTDAEVDELLKGVEVDSNGEIDYKKFIEDVLRQ
B3: Myosin light chain 1 (Saccharomyces cerevisiae), P53141 (parent)
chain: B2 chain
partner: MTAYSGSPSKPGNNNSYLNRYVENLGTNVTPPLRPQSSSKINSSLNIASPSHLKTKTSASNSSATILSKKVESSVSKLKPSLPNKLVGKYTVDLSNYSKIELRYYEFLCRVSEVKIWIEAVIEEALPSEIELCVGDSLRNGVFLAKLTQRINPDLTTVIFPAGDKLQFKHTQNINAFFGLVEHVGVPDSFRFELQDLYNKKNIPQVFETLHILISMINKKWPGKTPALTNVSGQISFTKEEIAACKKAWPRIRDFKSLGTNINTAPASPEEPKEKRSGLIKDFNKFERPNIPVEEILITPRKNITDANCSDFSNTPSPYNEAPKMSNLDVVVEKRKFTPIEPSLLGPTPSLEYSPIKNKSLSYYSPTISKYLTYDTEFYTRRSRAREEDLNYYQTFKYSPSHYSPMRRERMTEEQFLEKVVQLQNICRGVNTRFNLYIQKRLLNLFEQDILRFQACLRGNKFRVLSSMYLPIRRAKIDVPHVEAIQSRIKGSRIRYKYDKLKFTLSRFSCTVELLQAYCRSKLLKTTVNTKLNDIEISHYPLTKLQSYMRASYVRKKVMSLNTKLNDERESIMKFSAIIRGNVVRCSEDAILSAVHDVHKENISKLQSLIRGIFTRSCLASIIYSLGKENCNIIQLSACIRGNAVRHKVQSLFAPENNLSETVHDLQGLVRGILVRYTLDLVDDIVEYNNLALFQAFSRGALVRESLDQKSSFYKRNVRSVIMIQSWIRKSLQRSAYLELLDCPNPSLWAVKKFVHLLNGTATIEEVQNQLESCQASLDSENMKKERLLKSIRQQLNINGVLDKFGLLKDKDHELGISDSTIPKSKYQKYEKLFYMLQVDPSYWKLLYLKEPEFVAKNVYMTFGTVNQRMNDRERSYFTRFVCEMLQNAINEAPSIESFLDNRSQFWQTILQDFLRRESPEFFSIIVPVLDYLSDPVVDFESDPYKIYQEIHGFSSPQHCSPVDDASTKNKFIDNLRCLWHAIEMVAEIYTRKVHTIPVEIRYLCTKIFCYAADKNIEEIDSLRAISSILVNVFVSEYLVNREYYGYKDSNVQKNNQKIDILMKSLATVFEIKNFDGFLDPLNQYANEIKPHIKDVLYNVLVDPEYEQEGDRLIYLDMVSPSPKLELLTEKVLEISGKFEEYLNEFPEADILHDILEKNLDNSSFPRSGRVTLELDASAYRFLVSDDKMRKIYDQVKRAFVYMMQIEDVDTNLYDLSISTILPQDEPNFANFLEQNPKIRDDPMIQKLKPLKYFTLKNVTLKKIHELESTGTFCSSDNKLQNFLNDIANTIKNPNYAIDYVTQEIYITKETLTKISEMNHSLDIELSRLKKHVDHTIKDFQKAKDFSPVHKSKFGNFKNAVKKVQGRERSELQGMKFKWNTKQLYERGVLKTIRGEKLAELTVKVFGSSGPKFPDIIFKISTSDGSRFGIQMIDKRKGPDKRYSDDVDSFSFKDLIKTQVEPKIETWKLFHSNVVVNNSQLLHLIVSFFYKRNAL

Variants of: B1
Details: with mlc2_yeast MLC2, Q06580

| effect of a mutation on the interaction | Variant |
| --- | --- |
| with no effect | R806A |

Variants of: B2
Details: with myo2_yeast MYO2, P19524
Sequence of myo2_yeast MYO2, P19524 (P19524 whole entry): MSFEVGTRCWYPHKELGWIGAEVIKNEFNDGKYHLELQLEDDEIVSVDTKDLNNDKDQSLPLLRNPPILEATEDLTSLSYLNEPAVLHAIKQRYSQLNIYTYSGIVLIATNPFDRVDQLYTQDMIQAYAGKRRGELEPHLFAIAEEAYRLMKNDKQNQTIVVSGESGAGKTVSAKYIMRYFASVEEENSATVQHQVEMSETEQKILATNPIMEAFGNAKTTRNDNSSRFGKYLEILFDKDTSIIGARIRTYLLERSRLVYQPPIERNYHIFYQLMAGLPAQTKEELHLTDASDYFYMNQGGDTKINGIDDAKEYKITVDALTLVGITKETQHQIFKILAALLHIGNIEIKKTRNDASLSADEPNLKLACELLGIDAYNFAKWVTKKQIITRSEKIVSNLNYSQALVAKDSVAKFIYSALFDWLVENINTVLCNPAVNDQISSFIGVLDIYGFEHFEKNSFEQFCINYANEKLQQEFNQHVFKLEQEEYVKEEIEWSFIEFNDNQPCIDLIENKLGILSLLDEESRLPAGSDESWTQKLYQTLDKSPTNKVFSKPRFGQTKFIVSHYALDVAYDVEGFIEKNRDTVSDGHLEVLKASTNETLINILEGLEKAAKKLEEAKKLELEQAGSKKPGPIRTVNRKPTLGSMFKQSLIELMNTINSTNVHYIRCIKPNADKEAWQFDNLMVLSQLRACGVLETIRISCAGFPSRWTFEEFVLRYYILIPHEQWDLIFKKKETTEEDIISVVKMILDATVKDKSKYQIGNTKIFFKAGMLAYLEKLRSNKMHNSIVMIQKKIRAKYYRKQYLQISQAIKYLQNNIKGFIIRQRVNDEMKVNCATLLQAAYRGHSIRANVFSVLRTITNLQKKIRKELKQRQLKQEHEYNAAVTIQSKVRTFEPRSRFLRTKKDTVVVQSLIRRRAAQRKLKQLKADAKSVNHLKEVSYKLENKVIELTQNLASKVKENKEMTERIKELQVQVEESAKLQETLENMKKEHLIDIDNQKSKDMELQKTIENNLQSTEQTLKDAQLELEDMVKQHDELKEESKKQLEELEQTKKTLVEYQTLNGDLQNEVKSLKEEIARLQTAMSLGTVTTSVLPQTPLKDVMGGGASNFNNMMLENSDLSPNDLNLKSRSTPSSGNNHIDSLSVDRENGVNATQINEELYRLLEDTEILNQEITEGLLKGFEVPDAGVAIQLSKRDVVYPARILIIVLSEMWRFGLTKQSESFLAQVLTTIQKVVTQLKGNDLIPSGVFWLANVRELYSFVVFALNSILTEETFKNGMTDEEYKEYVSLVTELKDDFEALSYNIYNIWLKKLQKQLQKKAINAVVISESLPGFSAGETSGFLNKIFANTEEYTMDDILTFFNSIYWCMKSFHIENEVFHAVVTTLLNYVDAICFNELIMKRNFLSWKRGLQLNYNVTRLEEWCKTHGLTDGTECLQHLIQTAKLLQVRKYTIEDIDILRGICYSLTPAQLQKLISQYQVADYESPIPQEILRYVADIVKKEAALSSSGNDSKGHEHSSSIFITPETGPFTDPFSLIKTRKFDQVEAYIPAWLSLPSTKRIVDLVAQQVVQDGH

| effect of a mutation on the interaction | Variant |
| --- | --- |
| with no effect | MSATRANKDIFTLFDKKGQGAIAKDSLGDYLRAIGYNPTNQLVQDIINADSSLRDASSLTLDQITGLIEVNEKELDATTKAKTEDFVKAFQVFDKESTGKVSVGDLRYMLTGLGEKLTDAEVDELLKGVEVDSNEEIDYKKFIEDVLRQ [G135E] |
| disrupting interaction strength | MSATRANKDIFTLFDKKGQGAIAKDSLGDYLRAIGYNPTNQLVQDIINADSSLRDASSLTLDQITGLIEVNEKELDATTKAKTEDFVKAFQVFDKESTGKVSVGDLRYMLTGLDEKLTDAEVDELLKGVEVDSNGEIDYKKFIEDVLRQ [G114D] |

Variants of: B2
Details: with myo1_yeast MYO1, P08964

| effect of a mutation on the interaction | Variant |
| --- | --- |
| decreasing interaction strength | MSATRANKDIFTLFDKKGQGAIAKDSLGDYLRAIGYNPTNQLVQDIINADSSLRDASSLTLDQITGLIEVNEKELDATTKAKTEDFVKAFQVFDKESTGKVSVGDLRYMLTGLGEKLTDAEVDELLKGVEVDSNEEIDYKKFIEDVLRQ [G135E] |
| decreasing interaction strength | MSATRANKDIFTLFDKKGQGAIAKDSLGDYLRAIGYNPTNQLVQDIINADSSLRDASSLTLDQITGLIEVNEKELDATTKAKTEDFVKAFQVFDKESTGKVSVGDLRYMLTGLDEKLTDAEVDELLKGVEVDSNGEIDYKKFIEDVLRQ [G114D] |

Variants of: B3
Details: with iqg1_yeast IQG1, Q12280

| effect of a mutation on the interaction | Variant |
| --- | --- |
| with no effect | MSATRANKDIFTLFDKKGQGAIAKDSLGDYLRAIGYNPTNQLVQDIINADSSLRDASSLTLDQITGLIEVNEKELDATTKAKTEDFVKAFQVFDKESTGKVSVGDLRYMLTGLGEKLTDAEVDELLKGVEVDSNEEIDYKKFIEDVLRQ [G135E] |
| disrupting interaction strength | MSATRANKDIFTLFDKKGQGAIAKDSLGDYLRAIGYNPTNQLVQDIINADSSLRDASSLTLDQITGLIEVNEKELDATTKAKTEDFVKAFQVFDKESTGKVSVGDLRYMLTGLDEKLTDAEVDELLKGVEVDSNGEIDYKKFIEDVLRQ [G114D] |
